Assay results from patent US10280205B2, “Method for treating cancer with an activated T lymphocyte that selectively recognizes a cancer cell consisting of specific peptide” (immatics biotechnologies GmbH, priority 2015, dated 2019).

biological target: HLA-A*02:01 (Homo sapiens, UniProt P04439, D140Y/D185E/D98H/E176V/E277Q/G131W/G231S/I119V/I121R/I166T/I218V/L300P/L318F/N151K/N90K/P208A/P217A/Q86G/Q94H/R138H/R169H/T345S); assay: MHC binding assay: UV-ligand exchange with beta2m ELISA (exchange yield); details: binding to HLA-A*02:01, β2m ELISA
Source text: Candidate peptides for T cell based therapies according to the present invention were further tested for their MHC binding capacity (affinity). The individual peptide-MHC complexes were produced by UV-ligand exchange, where a UV-sensitive peptide is cleaved upon UV-irradiation, and exchanged with the peptide of interest as analyzed. Only peptide candidates that can effectively bind and stabilize the peptide-receptive MHC molecules prevent dissociation of the MHC complexes. To determine the yield of the exchange reaction, an ELISA was performed based on the detection of the light chain (β2m) of stabilized MHC complexes. The assay was performed as generally described in Rodenko et al. (Rodenko et al., 2006).
96 well MAXISorp plates (NUNC) were coated over night with 2 ug/ml streptavidin in PBS at room temperature, washed 4× and blocked for 1 h at 37° C. in 2% BSA containing blocking buffer. […] Peptide-MHC monomers of the UV-exchange reaction were diluted 100 fold in blocking buffer. Samples were incubated for 1h at 37° C., washed four times, incubated with 2 ug/ml HRP conjugated anti-β2m for 1h at 37° C., washed again and detected with TMB solution that is stopped with […]. Absorption was measured at 450 nm. Candidate peptides that show a high exchange yield (preferably higher than 50%, most preferred higher than 75%) are generally preferred for a generation and production of antibodies or fragments thereof, and/or T cell receptors or fragments thereof, as they show sufficient avidity to the MHC molecules and prevent dissociation of the MHC complexes.

Substance | Peptide exchange (MHC class I binding score, peptide exchange yield)
207 (GLTSTNAEV; listed as Homo sapiens) [compound 207] | “++” (≥20% = ++)
342 (HIYDKVMTV; listed as Homo sapiens) [compound 342] | “+++” (≥50 = +++)
561 (YLQLTQSEL; listed as Homo sapiens) [compound 561] | “+++” (≥50 = +++)
453 (KLLEATSAV; listed as Homo sapiens) [compound 453] | “++” (≥20% = ++)
146 (SLATAGDGLIEL; listed as Homo sapiens) [compound 146] | “++” (≥20% = ++)
149 (NLLELFVQL; listed as Homo sapiens) [compound 149] | “+++” (≥50 = +++)
363 (KVLDVSDLESV; listed as Homo sapiens) [compound 363] | “++” (≥20% = ++)
244 (SLFGGTEITI; listed as Homo sapiens) [compound 244] | “+++” (≥50 = +++)
300 (ALLGQTFSL; listed as Homo sapiens) [compound 300] | “+++” (≥50 = +++)
272 (ALGNTVPAV; listed as Homo sapiens) [compound 272] | “+++” (≥50 = +++)
589 (KLYPQLPAEI; listed as Homo sapiens) [compound 589] | “+++” (≥50 = +++)
387 (ALFQATAEV; listed as Homo sapiens) [compound 387] | “++++” (≥75% = ++++)
155 (RVANLHFPSV; listed as Homo sapiens) [compound 155] | “+++” (≥50 = +++)
462 (KLAKQPETV; listed as Homo sapiens) [compound 462] | “+++” (≥50 = +++)
119 (FLYIGDIVSL; listed as Homo sapiens) [compound 119] | “++++” (≥75% = ++++)
161 (ALLEGVNTV; listed as Homo sapiens) [compound 161] | “+++” (≥50 = +++)
565 (ALQETPTSV; listed as Homo sapiens) [compound 565] | “++” (≥20% = ++)
12 (SLWPDPMEV; listed as Homo sapiens) [compound 12] | “+++” (≥50 = +++)
23 (VLLDDIFAQL; listed as Homo sapiens) [compound 23] | “+++” (≥50 = +++)
551 (KLYESLLPFA; listed as Homo sapiens) [compound 551] | “+++” (≥50 = +++)
614 (LLLPDQPPYHL; listed as Homo sapiens) [compound 614] | “+++” (≥50 = +++)

Substance | Peptide exchange (MHC class I binding score, peptide exchange yield)
17 (GLLPGDRLVSV; listed as Homo sapiens) [compound 17] | “+++” (≥50 = +++)
328 (ALNDQVFEI; listed as Homo sapiens) [compound 328] | “+++” (≥50 = +++)
512 (SLSEIVPCL; listed as Homo sapiens) [compound 512] | “+++” (≥50 = +++)
518 (KLNAEVACV; listed as Homo sapiens) [compound 518] | “+++” (≥50 = +++)
617 (ALMYESEKVGV; listed as Homo sapiens) [compound 617] | “+++” (≥50 = +++)
597 (KLLEGQVIQL; listed as Homo sapiens) [compound 597] | “+++” (≥50 = +++)
385 (SLLEQGLVEA; listed as Homo sapiens) [compound 385] | “++” (≥20% = ++)
459 (ALITEVVRL; listed as Homo sapiens) [compound 459] | “++” (≥20% = ++)
66 (FLDENIGGVAV; listed as Homo sapiens) [compound 66] | “+++” (≥50 = +++)
622 (RLLGEEVVRVLQA; listed as Homo sapiens) [compound 622] | “+++” (≥50 = +++)
43 (VLSSLEINI; listed as Homo sapiens) [compound 43] | “++” (≥20% = ++)
275 (YLVYILNEL; listed as Homo sapiens) [compound 275] | “++” (≥20% = ++)
104 (STMEQNFLL; listed as Homo sapiens) [compound 104] | “++++” (≥75% = ++++)
73 (NIFDLQIYV; listed as Homo sapiens) [compound 73] | “+++” (≥50 = +++)
506 (KLLGKVETA; listed as Homo sapiens) [compound 506] | “+++” (≥50 = +++)
486 (AVMESIQGV; listed as Homo sapiens) [compound 486] | “+++” (≥50 = +++)
297 (VLADIELAQA; listed as Homo sapiens) [compound 297] | “+++” (≥50 = +++)
547 (TLDITPHTV; listed as Homo sapiens) [compound 547] | “+++” (≥50 = +++)
621 (VLMDRLPSLL; listed as Homo sapiens) [compound 621] | “++++” (≥75% = ++++)
148 (ALNPEIVSV; listed as Homo sapiens) [compound 148] | “++” (≥20% = ++)
592 (RLLSAAENFL; listed as Homo sapiens) [compound 592] | “+++” (≥50 = +++)

Substance | Peptide exchange (MHC class I binding score, peptide exchange yield)
610 (LLAPTPYIIGV; listed as Homo sapiens) [compound 610] | “+++” (≥50 = +++)
343 (SLLEVNEESTV; listed as Homo sapiens) [compound 343] | “+++” (≥50 = +++)
395 (ALALGGIAVV; listed as Homo sapiens) [compound 395] | “++++” (≥75% = ++++)
372 (TMLLNIPLV; listed as Homo sapiens) [compound 372] | “++” (≥20% = ++)
498 (KLWTGGLDNTV; listed as Homo sapiens) [compound 498] | “+++” (≥50 = +++)
471 (YLYNNMIAKI; listed as Homo sapiens) [compound 471] | “+++” (≥50 = +++)
583 (ILANDGVLLAA; listed as Homo sapiens) [compound 583] | “+++” (≥50 = +++)
122 (FLLAEDDIYL; listed as Homo sapiens) [compound 122] | “+++” (≥50 = +++)
546 (VMIAGKVAVV; listed as Homo sapiens) [compound 546] | “+++” (≥50 = +++)
450 (FMIDASVHPTL; listed as Homo sapiens) [compound 450] | “+++” (≥50 = +++)
588 (SLLPLSHLV; listed as Homo sapiens) [compound 588] | “+++” (≥50 = +++)
324 (FLYDEIEAEV; listed as Homo sapiens) [compound 324] | “+++” (≥50 = +++)
225 (SLLKVLPAL; listed as Homo sapiens) [compound 225] | “+++” (≥50 = +++)
307 (ALPVSLPQI; listed as Homo sapiens) [compound 307] | “+++” (≥50 = +++)
526 (RLAEVGQYEQV; listed as Homo sapiens) [compound 526] | “++” (≥20% = ++)
25 (FLPDEPYIKV; listed as Homo sapiens) [compound 25] | “+++” (≥50 = +++)
69 (FQLDPSSGVLVTV; listed as Homo sapiens) [compound 69] | “+++” (≥50 = +++)
458 (SLIDKLYNI; listed as Homo sapiens) [compound 458] | “++” (≥20% = ++)
186 (TLFFQQNAL; listed as Homo sapiens) [compound 186] | “++” (≥20% = ++)
